Data on eight molecules can be found in patent publication US20200024322A1 (Eli Lilly, published 2020).

Substitutions are numbered along the chain they refer to. Numbered stars: 1 amine (or outer) side, 2 acyl side, 3 side chain; on linkers, the order of the positions; unused ones are H or OH. Square brackets hold non-standard residues; d marks the D form. Side chains are listed from the residue outwards. Ends that are not written are not given here. * marks the point of attachment. C20 diacid = O=C(O)CCCCCCCCCCCCCCCCCCC(=O)*; γGlu = O=C(O)[C@H](CCC(=O)[*:2])N[*:1]; AEEA = NCCOCCOCC(=O)O; Aib = CC(C)(N)C(=O)O

First the molecules themselves.
T1: human GIP receptor (human, UniProt P48546 22-466)
T1 construct: whole, on cells; Used as crude membranes of stably transfected CHO cells; also called hGIPR
T1 sequence (looked up): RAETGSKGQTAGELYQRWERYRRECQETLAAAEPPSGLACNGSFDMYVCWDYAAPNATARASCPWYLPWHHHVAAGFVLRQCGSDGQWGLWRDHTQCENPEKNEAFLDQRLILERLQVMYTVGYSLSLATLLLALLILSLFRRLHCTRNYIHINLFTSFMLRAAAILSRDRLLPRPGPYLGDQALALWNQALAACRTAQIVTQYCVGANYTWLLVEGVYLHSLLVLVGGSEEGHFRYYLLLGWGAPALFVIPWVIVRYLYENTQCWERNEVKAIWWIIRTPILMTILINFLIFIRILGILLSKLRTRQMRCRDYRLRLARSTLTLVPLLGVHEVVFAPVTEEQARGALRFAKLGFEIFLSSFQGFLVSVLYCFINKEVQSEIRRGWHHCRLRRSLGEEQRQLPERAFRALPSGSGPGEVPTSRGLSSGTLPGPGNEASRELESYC

B1: Example 29 (peptide)
peptide: Y[Aib]EGTFTSDYSILLDK([AEEA-AEEA-γGlu-C20 diacid])IAQ[Aib]AFIEYLIEGGPSSGAPPPS-NH2
modifications: N-terminus assumed
SMILES: CC[C@H](C)[C@H](NC(=O)[C@H](CCCCNC(=O)COCCOCCNC(=O)COCCOCCNC(=O)CC[C@H](NC(=O)CCCCCCCCCCCCCCCCCCC(=O)O)C(=O)O)NC(=O)[C@H](CC(=O)O)NC(=O)[C@H](CC(C)C)NC(=O)[C@H](CC(C)C)NC(=O)[C@@H](NC(=O)[C@H](CO)NC(=O)[C@H](Cc1ccc(O)cc1)NC(=O)[C@H](CC(=O)O)NC(=O)[C@H](CO)NC(=O)[C@@H](NC(=O)[C@H](Cc1ccccc1)NC(=O)[C@@H](NC(=O)CNC(=O)[C@H](CCC(=O)O)NC(=O)C(C)(C)NC(=O)[C@@H](N)Cc1ccc(O)cc1)[C@@H](C)O)[C@@H](C)O)[C@@H](C)CC)C(=O)N[C@@H](C)C(=O)N[C@@H](CCC(N)=O)C(=O)NC(C)(C)C(=O)N[C@@H](C)C(=O)N[C@@H](Cc1ccccc1)C(=O)N[C@H](C(=O)N[C@@H](CCC(=O)O)C(=O)N[C@@H](Cc1ccc(O)cc1)C(=O)N[C@@H](CC(C)C)C(=O)N[C@H](C(=O)N[C@@H](CCC(=O)O)C(=O)NCC(=O)NCC(=O)N1CCC[C@H]1C(=O)N[C@@H](CO)C(=O)N[C@@H](CO)C(=O)NCC(=O)N[C@@H](C)C(=O)N1CCC[C@H]1C(=O)N1CCC[C@H]1C(=O)N1CCC[C@H]1C(=O)N[C@@H](CO)C(N)=O)[C@@H](C)CC)[C@@H](C)CC
B2: Example 6 (peptide)
peptide: Y[Aib]EGTFTSDYSILLDKK([AEEA-AEEA-γGlu-C20 diacid])AQ[Aib]AFIEYLLEGGPSSGAPPPS-NH2
modifications: N-terminus assumed
SMILES: CC[C@H](C)[C@H](NC(=O)[C@H](Cc1ccccc1)NC(=O)[C@H](C)NC(=O)C(C)(C)NC(=O)[C@H](CCC(N)=O)NC(=O)[C@H](C)NC(=O)[C@H](CCCCNC(=O)COCCOCCNC(=O)COCCOCCNC(=O)CC[C@H](NC(=O)CCCCCCCCCCCCCCCCCCC(=O)O)C(=O)O)NC(=O)[C@H](CCCCN)NC(=O)[C@H](CC(=O)O)NC(=O)[C@H](CC(C)C)NC(=O)[C@H](CC(C)C)NC(=O)[C@@H](NC(=O)[C@H](CO)NC(=O)[C@H](Cc1ccc(O)cc1)NC(=O)[C@H](CC(=O)O)NC(=O)[C@H](CO)NC(=O)[C@@H](NC(=O)[C@H](Cc1ccccc1)NC(=O)[C@@H](NC(=O)CNC(=O)[C@H](CCC(=O)O)NC(=O)C(C)(C)NC(=O)[C@@H](N)Cc1ccc(O)cc1)[C@@H](C)O)[C@@H](C)O)[C@@H](C)CC)C(=O)N[C@@H](CCC(=O)O)C(=O)N[C@@H](Cc1ccc(O)cc1)C(=O)N[C@@H](CC(C)C)C(=O)N[C@@H](CC(C)C)C(=O)N[C@@H](CCC(=O)O)C(=O)NCC(=O)NCC(=O)N1CCC[C@H]1C(=O)N[C@@H](CO)C(=O)N[C@@H](CO)C(=O)NCC(=O)N[C@@H](C)C(=O)N1CCC[C@H]1C(=O)N1CCC[C@H]1C(=O)N1CCC[C@H]1C(=O)N[C@@H](CO)C(N)=O
B3: Example 9 (peptide)
peptide: Y[Aib]EGTFTSDYSILLDSK([AEEA-AEEA-γGlu-C20 diacid])AQ[Aib]AFIEYLIEGGPSSGAPPPS-NH2
modifications: N-terminus assumed
SMILES: CC[C@H](C)[C@H](NC(=O)[C@H](CC(C)C)NC(=O)[C@H](Cc1ccc(O)cc1)NC(=O)[C@H](CCC(=O)O)NC(=O)[C@@H](NC(=O)[C@H](Cc1ccccc1)NC(=O)[C@H](C)NC(=O)C(C)(C)NC(=O)[C@H](CCC(N)=O)NC(=O)[C@H](C)NC(=O)[C@H](CCCCNC(=O)COCCOCCNC(=O)COCCOCCNC(=O)CC[C@H](NC(=O)CCCCCCCCCCCCCCCCCCC(=O)O)C(=O)O)NC(=O)[C@H](CO)NC(=O)[C@H](CC(=O)O)NC(=O)[C@H](CC(C)C)NC(=O)[C@H](CC(C)C)NC(=O)[C@@H](NC(=O)[C@H](CO)NC(=O)[C@H](Cc1ccc(O)cc1)NC(=O)[C@H](CC(=O)O)NC(=O)[C@H](CO)NC(=O)[C@@H](NC(=O)[C@H](Cc1ccccc1)NC(=O)[C@@H](NC(=O)CNC(=O)[C@H](CCC(=O)O)NC(=O)C(C)(C)NC(=O)[C@@H](N)Cc1ccc(O)cc1)[C@@H](C)O)[C@@H](C)O)[C@@H](C)CC)[C@@H](C)CC)C(=O)N[C@@H](CCC(=O)O)C(=O)NCC(=O)NCC(=O)N1CCC[C@H]1C(=O)N[C@@H](CO)C(=O)N[C@@H](CO)C(=O)NCC(=O)N[C@@H](C)C(=O)N1CCC[C@H]1C(=O)N1CCC[C@H]1C(=O)N1CCC[C@H]1C(=O)N[C@@H](CO)C(N)=O
B4: Example 7 (peptide)
peptide: Y[Aib]EGTFTSDYSILLDSK([AEEA-AEEA-γGlu-C20 diacid])AQ[Aib]AFIEYLLEGGPSSGAPPPS-NH2
modifications: N-terminus assumed
SMILES: CC[C@H](C)[C@H](NC(=O)[C@H](Cc1ccccc1)NC(=O)[C@H](C)NC(=O)C(C)(C)NC(=O)[C@H](CCC(N)=O)NC(=O)[C@H](C)NC(=O)[C@H](CCCCNC(=O)COCCOCCNC(=O)COCCOCCNC(=O)CC[C@H](NC(=O)CCCCCCCCCCCCCCCCCCC(=O)O)C(=O)O)NC(=O)[C@H](CO)NC(=O)[C@H](CC(=O)O)NC(=O)[C@H](CC(C)C)NC(=O)[C@H](CC(C)C)NC(=O)[C@@H](NC(=O)[C@H](CO)NC(=O)[C@H](Cc1ccc(O)cc1)NC(=O)[C@H](CC(=O)O)NC(=O)[C@H](CO)NC(=O)[C@@H](NC(=O)[C@H](Cc1ccccc1)NC(=O)[C@@H](NC(=O)CNC(=O)[C@H](CCC(=O)O)NC(=O)C(C)(C)NC(=O)[C@@H](N)Cc1ccc(O)cc1)[C@@H](C)O)[C@@H](C)O)[C@@H](C)CC)C(=O)N[C@@H](CCC(=O)O)C(=O)N[C@@H](Cc1ccc(O)cc1)C(=O)N[C@@H](CC(C)C)C(=O)N[C@@H](CC(C)C)C(=O)N[C@@H](CCC(=O)O)C(=O)NCC(=O)NCC(=O)N1CCC[C@H]1C(=O)N[C@@H](CO)C(=O)N[C@@H](CO)C(=O)NCC(=O)N[C@@H](C)C(=O)N1CCC[C@H]1C(=O)N1CCC[C@H]1C(=O)N1CCC[C@H]1C(=O)N[C@@H](CO)C(N)=O
B5: Example 8 (peptide)
peptide: YXEGTFTSDYSILLDKKAQXAFIEYLIEGGPSSGAPPPS
modifications: Aib2; K17((2-[2-(2-Amino-ethoxy)-ethoxy]-acetyl)2-(γ-Glu)-CO-(CH2)18-CO2H); Aib20; C-terminal NH2
B6: Example 13 (peptide)
peptide: Y[Aib]EGTFTSDYSILLD[Aib]IAQK([AEEA-AEEA-γGlu-C20 diacid])AFIEYLIEGGPSSGAPPPS-NH2
modifications: N-terminus assumed
SMILES: CC[C@H](C)[C@H](NC(=O)[C@H](CC(C)C)NC(=O)[C@H](Cc1ccc(O)cc1)NC(=O)[C@H](CCC(=O)O)NC(=O)[C@@H](NC(=O)[C@H](Cc1ccccc1)NC(=O)[C@H](C)NC(=O)[C@H](CCCCNC(=O)COCCOCCNC(=O)COCCOCCNC(=O)CC[C@H](NC(=O)CCCCCCCCCCCCCCCCCCC(=O)O)C(=O)O)NC(=O)[C@H](CCC(N)=O)NC(=O)[C@H](C)NC(=O)[C@@H](NC(=O)C(C)(C)NC(=O)[C@H](CC(=O)O)NC(=O)[C@H](CC(C)C)NC(=O)[C@H](CC(C)C)NC(=O)[C@@H](NC(=O)[C@H](CO)NC(=O)[C@H](Cc1ccc(O)cc1)NC(=O)[C@H](CC(=O)O)NC(=O)[C@H](CO)NC(=O)[C@@H](NC(=O)[C@H](Cc1ccccc1)NC(=O)[C@@H](NC(=O)CNC(=O)[C@H](CCC(=O)O)NC(=O)C(C)(C)NC(=O)[C@@H](N)Cc1ccc(O)cc1)[C@@H](C)O)[C@@H](C)O)[C@@H](C)CC)[C@@H](C)CC)[C@@H](C)CC)C(=O)N[C@@H](CCC(=O)O)C(=O)NCC(=O)NCC(=O)N1CCC[C@H]1C(=O)N[C@@H](CO)C(=O)N[C@@H](CO)C(=O)NCC(=O)N[C@@H](C)C(=O)N1CCC[C@H]1C(=O)N1CCC[C@H]1C(=O)N1CCC[C@H]1C(=O)N[C@@H](CO)C(N)=O
B7: Example 139 (peptide)
peptide: B5 peptide with F6X, L13X, A21T
modifications: Aib2; αMeF6; αMeL13; K17((2-[2-(2-Amino-ethoxy)-ethoxy]-acetyl)2-(γ-Glu)-CO-(CH2)18-CO2H); Aib20; C-terminal NH2
B8: Example 134 (peptide)
peptide: XXEGTXTSDYSIXLDEKAQXEFIEYLIEGGPSSGAPPPS
modifications: DesTyr1; Aib2; αMeF(2F)6; αMeL13; K17((2-[2-(2-Amino-ethoxy)-ethoxy]-acetyl)2-(γ-Glu)-CO-(CH2)18-CO2H); Aib20; C-terminal NH2

The target of the first test is T2, human GLP-1 receptor (human, UniProt P43220 24-463).
T2 construct: whole, on cells; Used as crude membranes of stably transfected HEK293 cells; also called hGLP1R; hGLP-1R
Kind of test: SPA, [125I]-GLP-1 displacement, hGLP-1R membranes.
Take B1: the Ki worked out at 8 nM.

B2 registered a Ki of 6.71 nM.

For B3, the Ki is 14.9 nM.

On to B4, for which affinity was put at a Ki of 43.3 nM.

With B5, the affinity, expressed as Ki, was 2.84 nM.

For the molecule B6, the Ki came to 31.1 nM.

A further test has as its target T1, human GIP receptor. Kind of test: SPA, [125I]-GIP displacement, hGIPR membranes.
On to B1, for which the Ki stood at 0.377 nM.

B2 yielded a Ki of 0.0835 nM.

For B3, the Ki came out at 0.127 nM. This Ki lies about 1.5-fold higher than the previous one.

As to B4, the Ki amounted to 0.252 nM.

B5 had a Ki of 0.0772 nM. Compared with the last molecule, the Ki is about 3.3-fold lower.

B6 registered a Ki of 0.296 nM.

B7 displayed a Ki of 0.036 nM.

B8 came in with a Ki of 0.14 nM.

Another test deals with T3, human glucagon receptor (human, UniProt P47871 26-477).
T3 construct: whole, on cells; Used as crude membranes of stably transfected HEK293 cells; also called hGcgR; hGLcgR
T3 sequence (P47871 26-477): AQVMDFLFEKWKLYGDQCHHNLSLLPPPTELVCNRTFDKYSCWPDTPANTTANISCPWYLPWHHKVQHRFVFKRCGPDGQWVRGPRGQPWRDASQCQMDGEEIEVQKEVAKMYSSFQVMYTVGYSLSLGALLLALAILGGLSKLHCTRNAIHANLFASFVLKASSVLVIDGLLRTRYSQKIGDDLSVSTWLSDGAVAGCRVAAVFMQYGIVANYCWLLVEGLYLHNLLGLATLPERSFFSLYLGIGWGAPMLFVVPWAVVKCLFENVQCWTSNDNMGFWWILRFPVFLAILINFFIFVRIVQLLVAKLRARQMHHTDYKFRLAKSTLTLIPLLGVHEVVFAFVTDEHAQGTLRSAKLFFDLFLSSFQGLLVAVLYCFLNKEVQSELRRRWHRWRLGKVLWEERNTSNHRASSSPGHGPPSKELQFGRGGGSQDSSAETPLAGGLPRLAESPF
The experiment in a line: SPA, [125I]-Gcg displacement, hGcgR membranes.
B1 registered an inhibitory constant (Ki) of 132 nM.

Molecule B2 had a Ki of 55.8 nM.

Take B3: the Ki is 375 nM. This Ki lies about 6.7-fold higher than the previous one.

With B4, the Ki was determined as 198 nM.

In turn, B5 returned a Ki of 206 nM.

Consider B7, for which the Ki turned out to be 105 nM.

B8 gave a Ki of 60.5 nM. Compared with the last molecule, the Ki is about 1.7-fold lower.

What is called Ki is the dissociation constant of the complex between target and ligand, obtained from inhibition or displacement. Read a low Ki as tighter binding.
